Reference: the RNAGym collection of RNA variant scans (doi:10.7554/elife.90254)

B1: LINE1-full (parent)
chain: UACGUAGGUGGUUUUCCCCUGAUAGUGCUAAGGGGGCCUGGAAGUUUGGACUGGGCAGAGCUCAACACAGCGUGGCAAAGUGGCUGUGGCUAGACUGCCUCUCUGGAUUCCUCGUCACUCAGCAGGGCAUCUCUGAGAGAAAUGCC

Variants of: B1
Assay: self-cleavage, relative activity (ratio to wild type); higher = more cleavage; in vitro, sequencing; the parent is a self-cleaving ribozyme

Variant	self-cleavage
C37G A43G	1.36
C37G A57G	0.73
C37G A57U	0.1
C37G A77U	1.06
C37G A92G	0.04
C37G A117G	1.66
C37G A121G	1.23
C37G A124G	1.61
C37G A129G	0.9
C37G A141G	1.66
C37G U45C	1.6
C37G U91C	0.32
C37G U115C	1.44
C37G U132A	1.23
C37G U132C	0.94
C37G U134C	0.66
C37U A57U	0.05
C37U A59G	0.07
C37U A67G	0.22
C37U A78G	0.96
C37U A79G	1.1
C37U A124G	0.59
C37U A124U	1.12
C37U A129U	0.45

Variant	self-cleavage
C37U C68A	0.03
C37U C123U	1.67
C37U C128A	1.23
C37U G40A	0.68
C37U G53A	1.33
C37U G54U	0.41
C37U G55A	0.12
C37U G86A	0.1
C37U U47A	1.41
C37U U62C	0.04
C37U U85A	0.05
C37U U100C	1.66
C37U U102A	1.19
C37U U104A	0.59
C37U U104C	1.28
C37U U108A	1.01
C37U U119A	0.99
C37U U132C	1.21
C37U U134C	1.25
C37U U143C	0.84
C38A	1.28
C38A A43G	0.59
C38A A50G	0.51
C38A A64G	0.18

Variant	self-cleavage
C38A A124G	0.68
C38A A129G	1.46
C38A A140U	1.1
C38A A142G	0.64
C38A G44U	1.48
C38A G55C	0.07
C38A G97A	0.05
C38A U39C	1.77
C38A U96G	0.1
C38A U108A	1.01
C38A U109A	1.36
C38G A43G	1.6
C38G U39G	1.28
C38U	1.33
C38U A57U	0.15
C38U A64G	0.17
C38U A64U	0.35
C38U A67G	0.42
C38U A67U	0.07
C38U A78G	1.28
C38U A79G	1.29
C38U A92G	0.05
C38U A94G	0.29
C38U A107G	1.63

Variant	self-cleavage
C38U A121G	1.72
C38U A129U	0.31
C38U A136G	1.89
C38U A138C	1.46
C38U A140G	1.24
C38U A141G	0.84
C38U A142G	1.4
C38U A142U	0.32
C38U C61G	0.02
C38U C84G	0.09
C38U C98G	0.12
C38U C101U	1.82
C38U G74A	1.27
C38U G144A	1.36
C38U U46C	1.51
C38U U47G	0.78
C38U U52A	1.25
C38U U52C	1.44
C38U U73C	1.76
C38U U85C	0.15
C38U U87C	0.06
C38U U100C	1.9
C38U U104C	1.71
C38U U112C	1.35

Variant	self-cleavage
C38U U119A	1.24
C38U U119C	1.47
C38U U134A	1.23
U39A A42G	1.21
U39A A42U	1.35
U39A A43C	0.66
U39A A43G	0.63
U39A A50G	1.29
U39A A64G	0.21
U39A A64U	0.47
U39A A77U	1.38
U39A A79G	1.35
U39A A117U	1.63
U39A A121G	1.69
U39A A121U	1.58
U39A A124U	1.61
U39A A136G	1.49
U39A A136U	1.52
U39A A140G	1.36
U39A A141G	1.55
U39A A141U	1.45
U39A A142G	1.53
U39A C66U	0.05
U39A C71U	0.97

Variant	self-cleavage
U39A C90A	0.03
U39A C90G	0.04
U39A C98U	0.45
U39A C111A	1.55
U39A C116A	1.38
U39A C128G	1.62
U39A C133U	1.41
U39A G48A	1.22
U39A G49A	1.06
U39A G53A	1.33
U39A G54A	0.66
U39A G70U	0.05
U39A G80A	2.24
U39A G86A	0.08
U39A G88A	0.08
U39A G93A	0.04
U39A G97A	0.12
U39A G135A	1.57
U39A G135U	1.99
U39A U45A	1.54
U39A U45C	1.58
U39A U47C	1.55
U39A U52A	1.4
U39A U62A	0.02

Variant	self-cleavage
U39A U62C	0.05
U39A U62G	0.04
U39A U73A	1.76
U39A U73C	1.38
U39A U81C	1.39
U39A U85A	0.11
U39A U85C	0.19
U39A U85G	0.28
U39A U87A	0.07
U39A U91A	0.56
U39A U102C	1.72
U39A U109A	1.45
U39A U109C	1.1
U39A U119A	1.46
U39A U119C	1.44
U39A U130C	1.5
U39A U134A	0.9
U39A U143A	1.37
U39C A42G	1.44
U39C A43G	1.38
U39C A57G	0.44
U39C A64G	0.24
U39C A65U	0.12
